Reference: publication PMC4142144

Biological target: 2CARD^RIG-I(E52A)-CARD^MAVS(KKK) fusion protein, 16 aa linker (human) (UniProt O95786)
Test: SEC-MALS

Question: With “2CARD^RIG-I(E52A)-CARD^MAVS(KKK) fusion protein, 16 aa linker (from UniProt O95786 1-188; Q7Z434 1-97)” as the substance, how does the stoichiometry N read?
Answer: 4
